# Experimental data reported in US20110111494A1 (APOGENIX, published 2011).
# T1: recombinant CD95-ligand (UniProt P48023 142-281, limits assumed)
# T1 sequence (looked up): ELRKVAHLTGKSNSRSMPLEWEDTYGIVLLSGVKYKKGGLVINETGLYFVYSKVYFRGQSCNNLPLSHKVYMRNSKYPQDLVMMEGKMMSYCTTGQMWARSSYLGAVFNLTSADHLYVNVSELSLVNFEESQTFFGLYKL
# Biological target: T1, recombinant CD95-ligand
# Assay: cell-based or functional assay
row,Molecule,"EC50 (inhibition of CD95L-induced apoptosis of Jurkat cells, Caspase 3/7 activity, Ac-DEVD-AFC cleavage) [µg/mL]"
1,dimeric CD95R-Fc fusion protein APG101 (from UniProt P25445 26-172),0.595
2,hs95R-ASPD-St (CD95R-SP-D fusion polypeptide) (receptor) RLSSKSVNAQVTDINSKGLELRKTVTTVETQNLEGLHHDGQFCHKPCPPGERKARDCTVNGDEPDCVPCQEGKEYTDKAHFSSKCRRCRLCDEGHGLEVEINCTRTQNTKCRCKPNFFCNSTVCEHCDPCTKCEHGIIKECTLTSNTKCKEEGSSGSSGSSGSGLPDVASLRQQVEALQGQVQHLQAAFSQYKKVELFPNGQSVGEKIFKTAGFVKPFTEAQLLCTQAGGQLASPRSAAENAALQQLVVAKNEAAFLSMTDSKTEGKFTYPTGESLVYSNWAPGEPNDDGGSEDCVEIFTNGKWNDRACGEKRLVVCEFGGSPSSSSSSAWSHPQFEK,0.573
3,hs95R-AT4-St (CD95R-T4 foldon fusion polypeptide) (receptor) RLSSKSVNAQVTDINSKGLELRKTVTTVETQNLEGLHHDGQFCHKPCPPGERKARDCTVNGDEPDCVPCQEGKEYTDKAHFSSKCRRCRLCDEGHGLEVEINCTRTQNTKCRCKPNFFCNSTVCEHCDPCTKCEHGIIKECTLTSNTKCKEEGSSGSSGSSGSGYIPEAPRDGQAYVRKDGEWVLLSTFLSGPSSSSSSAWSHPQFEK,0.0926
4,hs95R-A69-St (CD95R-RB69 fusion polypeptide) (receptor) RLSSKSVNAQVTDINSKGLELRKTVTTVETQNLEGLHHDGQFCHKPCPPGERKARDCTVNGDEPDCVPCQEGKEYTDKAHFSSKCRRCRLCDEGHGLEVEINCTRTQNTKCRCKPNFFCNSTVCEHCDPCTKCEHGIIKECTLTSNTKCKEEGSSGSSGSSGSGYIEDAPSDGKFYVRKDGAWVELPTASGPSSSSSSAWSHPQFEK,0.0876
